Where no end group is shown, it is not given here. pyridine‑bisazole = not defined here
Target: T1, toll-like receptor 10, extracellular domain (UniProt Q9BXR5 20-576)
T1 construct: toll-like receptor 10 (TLR10), extracellular domain; The extracellular domain is stated for the SPR experiment; also called TLR10; TLR10 cell surface receptor
T1 sequence (looked up): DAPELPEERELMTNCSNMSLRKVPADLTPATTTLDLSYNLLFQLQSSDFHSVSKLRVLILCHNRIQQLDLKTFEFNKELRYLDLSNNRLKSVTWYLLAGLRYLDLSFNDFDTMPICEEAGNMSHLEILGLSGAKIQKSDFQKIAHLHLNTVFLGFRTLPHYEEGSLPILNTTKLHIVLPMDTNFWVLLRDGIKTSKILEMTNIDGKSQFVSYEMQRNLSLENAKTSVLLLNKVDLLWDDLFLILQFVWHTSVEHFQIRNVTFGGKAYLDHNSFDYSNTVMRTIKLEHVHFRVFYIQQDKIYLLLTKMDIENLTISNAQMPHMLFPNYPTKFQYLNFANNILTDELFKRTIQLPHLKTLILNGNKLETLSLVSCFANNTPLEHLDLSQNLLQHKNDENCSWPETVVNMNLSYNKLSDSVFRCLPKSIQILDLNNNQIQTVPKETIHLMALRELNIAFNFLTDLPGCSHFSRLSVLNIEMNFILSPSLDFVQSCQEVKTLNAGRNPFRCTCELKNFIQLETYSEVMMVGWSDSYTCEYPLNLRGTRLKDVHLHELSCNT
Test: SPR; synthetic thiopeptides and target protein; conditions in S.I. 2.10 (not shown)
Conditions: both partners purified

B1: thiopeptide TL20 (synthetic) (peptide)
chain: SWSLELSRVNVVIHSCSC
modifications: bridge (positions not given here) via pyridine‑bisazole; reading uncertain; also: macrocyclic lactazole-like thiopeptide with pyridine-bisazole moiety, places not given here, dehydroamino acids, places not given here
Kd: 300 nM
